Molecular target: T1, BZU2/ZmMUTE-ΔC (Zea mays, UniProt K7V1X7 1-189)
T1 sequence: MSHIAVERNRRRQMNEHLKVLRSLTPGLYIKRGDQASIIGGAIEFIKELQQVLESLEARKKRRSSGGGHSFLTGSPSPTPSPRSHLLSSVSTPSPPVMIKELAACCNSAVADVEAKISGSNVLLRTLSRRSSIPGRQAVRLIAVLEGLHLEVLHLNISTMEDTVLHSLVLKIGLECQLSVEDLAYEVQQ
Assay: EMSA; cold probe competitor 2-, 5-, 10-fold; LightShift Chemiluminescent EMSA Kit (Thermo) per manufacturer; buffer, salt, pH and temperature not stated
Details: protein: recombinant; chain copies: 2; label: 5' biotin (cold probe unlabeled); blunt

B1: P2 (PAN2 promoter E-boxes -187, -200) (dsDNA)
DNA 1: CAGCCACAACAGGTGTCCCTTTCAAGTGATCTCTGCA
DNA 2: TGCAGAGATCACTTGAAAGGGACACCTGTTGTGGCTG
binding result: binds

B2: P1 (PAN1 promoter E-box -27) (dsDNA)
DNA 1: GAATGAGGGGCACCTGGAGAGCACAT
DNA 2: ATGTGCTCTCCAGGTGCCCCTCATTC
binding result: binds

Reference: publication PMC6738654, “BZU2/ZmMUTE controls symmetrical division of guard mother cell and specifies neighbor cell fate in maize”
